Measurements from patent US20070026059A1, “Ligands for orphan nuclear hormone receptor steroidogenic factor-1 (SF-1)” (priority 2005, published 2007).
Ends that are not written are not given here. * marks the point of attachment. Biotin = O=C1N[C@H]2[C@H](CS[C@H]2CCCCC(=O)*)N1

How the values were obtained:
SF-1 LBD = target: T1, SF-1 LBD (Mus musculus, UniProt P33242); assay: AlphaScreen binding of LxxLL / co-repressor motif peptides to purified SF-1 LBD; details: FIG. 1A
T1 construct: The mouse SF1 LBD (residues 221-462) was expressed as a 6×His fusion protein; made in house; host or cells: E. coli BL21 (DE3), pET24a
Protocol: A. Binding of various LxxLL motifs to the purified SF-1 LBD as measured by AlphaScreen™ assays. The background reading of either SF-1 or the peptides alone is less than 200. The peptide sequences are listed in experimental procedures. The results are the average of three experiments (error bars=standard deviation).
(§1) All phospholipids were purchased from Sigma and stored according to the manufacturer's instructions. The binding of the various peptide motifs to SF-1 was determined by AlphaScreen™ assays from Perkins-Elmer as described recently for other nuclear receptors (Xu et al., 2002). Wild type SF-1 and the mutated LBDs were purified as 6×His tag fusion proteins for the assays. The experiments were conducted with approximately 20-30 nM receptor LBD and 20 nM of biotinylated TIF2 peptide or other co-activator peptides in the presence of 5 μg/ml donor and acceptor beads in a buffer containing 50 mM MOPS, 50 mM NaF, 0.05 mM CHAPS, and 0.1 mg/ml bovine serum albumin, all adjusted to pH 7.4. An AlphaScreen kit for detection of hexa-His was used in this experiment and the binding signals for the TIF2/SF-1 interaction were detected in the absence or the presence of exogenous phospholipids. EC50/IC50 values for the effects of phospholipids on TIF2 binding to SF-1 were determined from a nonlinear least square fit of the data based on an average of three repeated experiments with standard errors typically less than 10% of measurements.
The peptides with an N-terminal biotinylation are listed below.

[1] = target: T2, SF-1 LBD / TIF2 co-activator motif interaction (Mus musculus, UniProt P33242); assay: AlphaScreen assay of SF-1 binding to TIF2 co-activator LxxLL motif in absence or presence of phospholipids; type: biochemical; details: for EC50: in the presence of 10% ethanol, FIG. 5E, read-out: potency (EC50) for recovering the SF-1/TIF2 binding activity
T2 construct: The mouse SF1 LBD (residues 221-462) was expressed as a 6×His fusion protein; made in house; host or cells: E. coli BL21 (DE3), pET24a
Protocol: The mouse SF1 LBD (residues 221-462) was expressed as a 6×His fusion protein from the expression vector pET24a (Novagen). BL21 (DE3) cells transformed with this expression plasmid were grown in LB broth at 16° C. to an OD600 of ˜1.0 and induced with 0.1 mM isopropylthio-β-D-galactoside (IPTG) for 16 hours. Cells were harvested, resuspended in 400 ml extract buffer (20 mM Tris pH8.0, 150 mM NaCl, 10% glycerol) per 6 l. of cells, and passed 3 times through a French Press with pressure set at 1000 pa. The lysate was centrifuged at 20,000 rpm for 30 minutes and the supernatant was loaded onto a 50 ml Ni-NTA column (Qiagen). The column was washed with extract buffer and the protein eluted with 300 ml gradient to buffer B (10 mM Tris, PH8.0, 150 mM NaCl, 10% glycerol and 500 mM imidazole). The protein was further purified with a Q-Sepharose column (Amersham Biosciences). A typical yield of the purified protein was about 100 mg from each liter of cells. To prepare the protein-cofactor complex, we added a 2-fold excess of the SHP peptide ([…]; SEQ ID NO:1) to the purified protein, followed by filter concentration to 15 mg/ml.
as §1

[2] = test system: mutated SF-1 LBD (pocket residue to tryptophan mutants); assay: AlphaScreen assay: effect of 12PE on restoring co-activator binding of mutated SF-1 receptors; type: biochemical, mouse; details: 12PE 1.25 μM, FIG. 6E
Protocol: E. Effects of 12PE (1.25 μM) on restoring TIF2 binding activity of mutated SF-1 receptors.
as §1, with “EC50/IC50 values for the effects of phospholipids on TIF2 binding to SF-1 were determined from a nonlinear least square fit of the data based on an average of three repeated experiments with standard errors typically less than 10% of measurements.” left out
The SF-1 pocket comprises 51 residues that form intimate contacts with the bound phospholipid ligand. […] All mutated receptors expressed well and were readily purified for AlphaScreen assays that measure SF-1 recruitment of three different co-activator motifs that show interactions with SF-1 in FIG. 1A.

T1 sequence (P33242 221-462): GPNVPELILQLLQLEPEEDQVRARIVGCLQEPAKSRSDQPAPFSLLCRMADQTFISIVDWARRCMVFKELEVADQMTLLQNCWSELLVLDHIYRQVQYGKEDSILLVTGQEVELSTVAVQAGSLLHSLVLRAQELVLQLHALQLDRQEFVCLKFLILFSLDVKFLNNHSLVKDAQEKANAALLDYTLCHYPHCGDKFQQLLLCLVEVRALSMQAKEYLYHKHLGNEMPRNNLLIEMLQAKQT
T2 sequence (P33242 221-462): as above

## SMRT: N-terminally biotinylated co-repressor motif peptide QAVQEHASASTNMGLEAIIRKALMGKY (SEQ ID NO:10) (Biotin-QAVQEHASASTNMGLEAIIRKALMGKY; listed as Mus musculus)
SF-1 LBD
  interaction of peptide motif with purified SF-1: did not interact

## CCCCCCCCCCCCCCCC(=O)OC[C@H](COP(=O)([O-])OCC[N+](C)(C)C)OC(=O)CCCCCCCCCCCCCCC [16PC, 1,2-dihexadecanoyl-sn-glycero-3-phosphocholine]
[1]
  EC50: 80 to 120 nM

## CCCCCCCCCCCC(=O)OC[C@H](COP(=O)(O)OCCN)OC(=O)CCCCCCCCCCC [12PE, 1,2-Didodecanoyl-sn-glycero-3-phosphoethanolamine]
[2]
  restoration of co-activator binding of SF-1 mutants A270W, L266W and L348W: completely restored
  restoration of co-activator binding of SF-1 mutants L345W, V349W and A434W: cannot be restored
[1]
  EC50: 66 nM

## second SHP LxxLL motif: N-terminally biotinylated peptide VABAPVPSILKKILLEEPNS (SEQ ID NO:6)
SF-1 LBD
  interaction of peptide motif with purified SF-1: not

## SRC-1 fourth LxxLL motif: N-terminally biotinylated peptide QKPTSGPQTPQAQQKSLLQQLLTE (SEQ ID NO:4) (Biotin-QKPTSGPQTPQAQQKSLLQQLLTE; listed as Mus musculus)
SF-1 LBD
  interaction of peptide motif with purified SF-1: able to interact

## first LxxLL motif of SHP: N-terminally biotinylated peptide PCQGSASHPTILYTLLSPGP (SEQ ID NO:5) (Biotin-PCQGSASHPTILYTLLSPGP; listed as Mus musculus)
SF-1 LBD
  interaction of peptide motif with purified SF-1: able to interact

## CCCCC/C=C\C/C=C\CCCCCCCC(=O)OC[C@H](COP(=O)([O-])OCC[N+](C)(C)C)OC(=O)CCCCCCC/C=C\C/C=C\CCCCC [18PCD, 1,2-dilinoleonyl-sn-glycerol-3-phosphocholine]
[1]; absence of ethanol, FIG. 5D
  effect on high basal SF-1/TIF2 interaction: disrupted the high basal interactions of SF-1 with TIF2 in a dose dependent manner
[1]; absence of ethanol, high basal interaction, FIG. 5D, read-out: IC50 for inhibiting the SF-1/TIF2 interactions
  IC50: 100 to 300 nM

## SRC-1 second LxxLL motif: N-terminally biotinylated peptide SPSSHSSLTERHKILHRLLQEGSP (SEQ ID NO:3) (Biotin-SPSSHSSLTERHKILHRLLQEGSP; listed as Mus musculus)
SF-1 LBD
  interaction of peptide motif with purified SF-1: able to interact

## CBP: N-terminally biotinylated peptide SGNLVPDAASKHKQLSELLRGGSG (SEQ ID NO:8) (Biotin-SGNLVPDAASKHKQLSELLRGGSG; listed as Mus musculus)
SF-1 LBD
  interaction of peptide motif with purified SF-1: not

## CCCCCCCCCCCCCC(=O)OC[C@H](COP(=O)(O)OCCN)OC(=O)CCCCCCCCCCCCC [14PE, 1,2-dimyristoyl-sn-glycero-3-phosphoethanolamine]
[1]
  EC50: 64 nM

## CCO [ethanol]
[1]; 10% ethanol added to the binding buffer
  loss of the SF-1/TIF2 binding activity: > 90%

## TIF2 peptide: N-terminally biotinylated peptide QEPVSPKKKENALLRYLLDKDDTKD (SEQ ID NO:2), third LxxLL motif of co-activator TIF2
SF-1 LBD; background of SF-1 or peptide alone less than 200
  AlphaScreen signal on incubation of SF-1 with peptide: ~45,000 photo counts

## TRAP220: N-terminally biotinylated peptide GHGEDFSKVSQNPILTSLLQITGN (SEQ ID NO:7) (Biotin-GHGEDFSKVSQNPILTSLLQITGN; listed as Mus musculus)
SF-1 LBD
  interaction of peptide motif with purified SF-1: not

## N-COR: N-terminally biotinylated co-repressor motif peptide GHSFADPASNLGLEDIIRKALMGSF (SEQ ID NO:9)
SF-1 LBD
  interaction of peptide motif with purified SF-1: did not interact
